The record followed here is patent US10227653B2, “High MAST2-affinity polypeptides and uses thereof” (INSTITUT PASTEUR, priority 2011, dated 2019).

The term Kd denotes the concentration at which binding is half-saturated.

Assay [1] concerns the target T1, PDZ domain of the human MAST2 protein (MAST2-PDZ) (Homo sapiens, UniProt Q6P0Q8).
T1 sequence (Q6P0Q8 1101-1193 limits assumed): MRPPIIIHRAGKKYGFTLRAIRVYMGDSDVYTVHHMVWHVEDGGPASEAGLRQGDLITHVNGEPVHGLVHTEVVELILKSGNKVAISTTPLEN
The assay can be described thus: Isothermal Titration Calorimetry (ITC) with MAST2-PDZ. It is filed as binding. Particulars: 298 K, 50 mM Tris-HCl, 150 mM NaCl, pH7.5, read-out: Kd (μM) (dissociation constant) MAST2-PDZ. On the technique in general: In ITC the heat of successive injections is recorded.

Assay [2] has as its target T2, PDZ domain of the human PTPN4 protein (PTPN4-PDZ) (Homo sapiens, UniProt P29074).
T2 construct: the PDZ domain of the human PTPN4 protein
T2 sequence (P29074 517-589 limits assumed): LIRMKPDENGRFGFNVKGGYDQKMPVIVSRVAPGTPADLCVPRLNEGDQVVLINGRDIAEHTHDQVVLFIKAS
The assay can be described thus: ITC with PTPN4-PDZ. It is filed as binding. As for the experimental part: The affinity of the polypeptides of the invention for the PDZ domain of the human PTPN4 protein is low, i.e., the constant of dissociation (KD) of the complex formed by the polypeptide of the invention with the PDZ domain of the human PTPN4 protein is high, in particular is more than 500 μM (for example as measured by ITC, in particular in the same conditions and with the same concentrations as for the MAST2-PDZ above).
ITC measurements were made using VP-ITC VP-ITC200 calorimeters (MicroCal). MAST2-PDZ was titrated at 298 K by injections of the polypeptides (25-45 consecutive aliquots of 5-7 μL at 6-min intervals). Raw data were normalized and corrected for heats of dilution of polypeptides. Equilibrium dissociation constants (KD) were determined performing nonlinear curve fitting of the corrected data to a model with one set of sites using the Origin7.0 software (OriginLab). All samples were prepared in a buffer containing 50 mM Tris-HCl, 150 mM NaCl, pH7.5. Data were recorded with MAST2-PDZ at an initial concentration of 30 μM and with peptide at initial concentrations ranging from 250 μM to 350 μM.

Consider “ATT13: polypeptide ending with the MAST-2 binding domain […] (SEQ ID NO:235) (SWESHKSGGETRL; not fully specified)”, for which the Kd in assay [1] was determined as 0.57 µM; in assay [2], 160 µM.
